No end group written: not given here.
T1: pepscan peptide 6: 16-LVHSSNNFGA-25 (human)
T1 construct: Spotted on a nitrocellulose membrane
T1 peptide: LVHSSNNFGA

T2: pepscan peptide 7: 19-SSNNFGAILS-28 (human)
T2 construct: Spotted on a nitrocellulose membrane
T2 peptide: SSNNFGAILS

T3: human islet amyloid polypeptide (human IAPP), IAPP solution containing IAPP fibrils (human, not fully specified; disulfide bridge between cysteine residues 2 and 7 and an amidated C-terminus (as the filing describes human IAPP))
T3 construct: The human IAPP solution used for ELISA coating contained IAPP fibrils (electron microscopy); also called hIAPP; amylin
T3 peptide: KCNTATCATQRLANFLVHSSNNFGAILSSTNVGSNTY

T4: pepscan peptide 2: 4-TATCATQRLA-13 (human)
T4 construct: Spotted on a nitrocellulose membrane
T4 peptide: TATCATQRLA

T5: pepscan peptide 1: 1-KCNTATCATQ-10 (human, ends and bridges not checked; cysteine pairing not given here)
T5 construct: Spotted on a nitrocellulose membrane
T5 peptide: KCNTATCATQ


What was measured:
[1] = target: bovine serum albumin (BSA) (bovine, UniProt P02769 25-607); assay: direct ELISA, BSA coated at 10 µg/ml
[2] = target: T6, pathological Aβ amyloid (Alzheimer's disease human brain) (human, UniProt P05067 672-713); assay: immunohistochemistry, paraffin-embedded Alzheimer's disease brain sections
T6 construct: also called Aβ deposits

[3] = target: T1, pepscan peptide 6: 16-LVHSSNNFGA-25; assay: pepscan on nitrocellulose membrane, antibody 1 µg/ml
[4] = target: T2, pepscan peptide 7: 19-SSNNFGAILS-28; assay: as above
[5] = target: T3, human islet amyloid polypeptide (human …); assay: direct ELISA, human IAPP solution (fibrils) coated at 10 µg/ml
[6] = target: T3, human islet amyloid polypeptide (human …); assay: direct ELISA, human IAPP solution (fibrils) coated at 10 µg/ml, comparison with chimeric
[7] = target: T4, pepscan peptide 2: 4-TATCATQRLA-13; assay: pepscan on nitrocellulose membrane
[8] = target: T5, pepscan peptide 1: 1-KCNTATCATQ-10; assay: pepscan on nitrocellulose membrane, antibody 1 µg/ml

bovine serum albumin (BSA), sequence (P02769 25-607 limits assumed): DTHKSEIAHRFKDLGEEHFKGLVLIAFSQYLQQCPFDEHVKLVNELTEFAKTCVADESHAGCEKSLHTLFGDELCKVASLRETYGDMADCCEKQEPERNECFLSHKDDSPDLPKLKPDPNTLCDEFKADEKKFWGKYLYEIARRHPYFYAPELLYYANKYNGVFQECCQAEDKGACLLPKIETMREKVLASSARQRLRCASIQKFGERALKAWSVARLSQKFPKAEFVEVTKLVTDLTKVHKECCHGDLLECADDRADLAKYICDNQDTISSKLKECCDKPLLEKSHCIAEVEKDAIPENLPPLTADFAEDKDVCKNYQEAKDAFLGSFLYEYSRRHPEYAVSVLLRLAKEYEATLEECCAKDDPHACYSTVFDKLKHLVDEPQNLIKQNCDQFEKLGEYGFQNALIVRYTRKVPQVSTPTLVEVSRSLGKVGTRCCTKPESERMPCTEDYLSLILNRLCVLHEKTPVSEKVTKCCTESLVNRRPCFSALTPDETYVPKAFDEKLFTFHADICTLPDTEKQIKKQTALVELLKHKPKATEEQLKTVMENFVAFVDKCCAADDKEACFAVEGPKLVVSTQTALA

Row | Binder | binding result [1] | binding result [2] | other results
1 | NI-203.8E3 (antibody, V domains shown, Recombinant human antibody, kappa light chain, detected with anti-human IgG gamma secondary) VH: QVQLVQSGAEVKKPGSSVKVSCKASGGTFSSHTISWVRQAPGQGLEWMGGIIPIFGTANYAQKFQDRVTVTADKSTNTAYMELSSLRPEDTAVYYCAKGELEPRILYYYGMDVWGRGTTVTVSS VL: DVVMTQSPLSLPVTLGQPASISCRSSQSLVYSDGNTYLNWFHQRPGQSPRRLIYKVSNRDSGVPDRFSGSGSGTDFTLKISRVEAEDVGVYYCMQGSNWPGTFGQGTKVEIK | no binding | – | –
2 | NI-203.9A2 (antibody, V domains shown, Recombinant human antibody, kappa light chain, detected with anti-human IgG gamma secondary) VH: EVQLVESGGGLVQPGGSLRLSCAASGFTFSTFAMSWVRQAPGKGLEWVSTISGSGDNTYYADSLKGRFTISRDNSKNTLYLQVNSLRPEDTAVYYCAKSPSSLLATYFDYWGQGTLVTVSS VL: EIVLTQSPSTLSASVGDRVTITCRASESINSWLAWYQQKPGKGPKLLIYKASSLQSGVPSRFSGSGSGTEFTLTISSLQPDDFATYYCQQHNSYWTFGQGTKVEIK | no binding | no binding (tested: 50 nM) | –
3 | mouse chimeric NI-203.9A2 (antibody, V domains shown, Mouse chimeric version of the human antibody (said to comprise the CDR domains of the human antibody)) VH: EVQLVESGGGLVQPGGSLRLSCAASGFTFSTFAMSWVRQAPGKGLEWVSTISGSGDNTYYADSLKGRFTISRDNSKNTLYLQVNSLRPEDTAVYYCAKSPSSLLATYFDYWGQGTLVTVSS VL: EIVLTQSPSTLSASVGDRVTITCRASESINSWLAWYQQKPGKGPKLLIYKASSLQSGVPSRFSGSGSGTEFTLTISSLQPDDFATYYCQQHNSYWTFGQGTKVEIK | no binding | – | –
4 | NI-203.19H8 (antibody, V domains shown, Recombinant human antibody, kappa light chain, detected with anti-human IgG gamma secondary) VH: EVQLVESGGGVVQPGTSLRLSCAASGFTFSSYGMHWVRQAPGKGLEWVAIIWYDGSKEYYADSLKGRVTISRDNSENTLYLQLHTLRVEDTAVYFCARTIASATVDHGMDVWGQGTLVTVSS VL: DVVMTQSPSSVSASVGDRVTITCRASHDISTWLAWYQQRPGKAPNLLIFGASRLQSGVSPRFSGSGSGTDFTLTISSLQPEDFATYYCQQTNNFPPTFGQGTRLEIK | no binding | no binding (tested: 50 nM) | binding result [3]: binds; binding result [4]: binds; EC50 [5]: 22 nM; EC50 [6]: 22.9 nM
5 | mouse chimeric NI-203.19H8 (antibody, V domains shown, Mouse chimeric version of the human antibody (said to comprise the CDR domains of the human antibody)) VH: EVQLVESGGGVVQPGTSLRLSCAASGFTFSSYGMHWVRQAPGKGLEWVAIIWYDGSKEYYADSLKGRVTISRDNSENTLYLQLHTLRVEDTAVYFCARTIASATVDHGMDVWGQGTLVTVSS VL: DVVMTQSPSSVSASVGDRVTITCRASHDISTWLAWYQQRPGKAPNLLIFGASRLQSGVSPRFSGSGSGTDFTLTISSLQPEDFATYYCQQTNNFPPTFGQGTRLEIK | no binding | – | EC50 [5]: 23.9 nM
6 | NI-203.26C11 (antibody, V domains shown, Recombinant human antibody, kappa light chain, detected with anti-human IgG gamma secondary) VH: QVQLQESGPGLVKPSQTLSLTCTVSGGSISSGNYYWTWIRQPAGKGLEWIGHIYSSGTTNYNPSLESRVTISVDTSKNQFSLSLNSVTAADTAVYYCARPLATVPDAFNIWGQGTMVTVSS VL: not shown | no binding | no binding (tested: 50 nM) | binding result [7]: no binding (tested: 1 µg/ml); binding result [8]: binds
7 | mouse chimeric NI-203.26C11 (antibody, V domains shown, Mouse chimeric version of the human antibody (said to comprise the CDR domains of the human antibody)) VH: QVQLQESGPGLVKPSQTLSLTCTVSGGSISSGNYYWTWIRQPAGKGLEWIGHIYSSGTTNYNPSLESRVTISVDTSKNQFSLSLNSVTAADTAVYYCARPLATVPDAFNIWGQGTMVTVSS VL: not shown | no binding | – | –
